Literature values as cited in article PMC4370504.

Molecular target: ubiquitin (Homo sapiens) (UniProt P0CG47)
Assay: ITC

Sequence of Pol eta UBZ (Q9Y253 625-665): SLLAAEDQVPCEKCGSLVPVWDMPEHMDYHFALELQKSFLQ

Kd: 81 µM
Substance: Pol eta UBZ (from UniProt Q9Y253)
